Results: the DeepSol protein solubility set

Assay: soluble on expression in E. coli; label from the status in PepcDB or PDB records

Row | Sequence | soluble on expression in E. coli
1 | MSLTLSDKDFEVLRDFIYNHCGIYFHTSKKYFLESRITRRIEATSSPNLMTYMGLLKSGPGKSDELLKLLTEITTNETCFFRNPPQLKALENVFLPEIVAAKGKIGFRKLRIWSAGSSSGEEAYTMAMLLLEKRATILKDWIIEIVGTDISETVLAQAREGVYNAYSVRNTPDYYKKKYFRQEPGERYVLSPDVKKLVSFNHLNLYEDAKMVFMKSFDFIFCANVLIYFDLASKTKVVQHYYNNLQPYGYFFVGQSESLHGVNDKFKTVHFPGGFAYKKEGHHHHHH | soluble
2 | MAHHHHHHSLNTNLKPKLQRFASATAFACPICQENLTLLETNFKCCNRHSFDLAKFGYVNLAPQIKQSANYDKENFQNRQQILEAGFYQAILDAVSDLLASSKTTTTILDIGCGEGFYSRKLQESHSEKTFYAFDISKDSVQIAAKSEPNWAVNWFVGDLARLPIKDASMDILLDIFSPANYGEFRRVLSKDGILIKVIPTENHLKEIRQRVQDQLTNKEYSNQDIKEHFQEHFTILSSQTASLTKTITAEQLQALLSMTPLLFHVDQSKIDWSQLTEITIEAEILVGKAFEG | soluble
3 | MFLVVGQGNPGERYARTRHNLGFMVLDRLGLSFRPRGEALVAEAEGGLFLKPLTYYNLTGRAVAPLARFYKIPPERILVVHDEMDLPLGRIRFKAGGSAAGNRGVLSIEEALGTRAFHRLRLGIGKPPDPSRGAEYVLSPFREEELPVVERVLEAAKEAVWCWVREGLPPCAGRFNGLDLSLG | soluble
4 | MKEQILEKLKTVKYPGFEKDIVSFNFVKDIKIQDDGVFIDIEIVSANPEVANEIRKNTIEALSSLALKNIELNIITPKIPEEKSNSRSGKNIAPQVKNFIMVSSGKGGVGKSTTTVNLAISMAKMGKRVGILDADIYGPNIPRMLGETKTQPEVVGQRLKPILTHGVYMMSMGVLIEEGQGLMWRGAMIMKAIEQLLADVIWPELDVLFLDMPPGTGDAQITSAQSIPIAAGVCVSTPQTVSLDDSKRALDMFNKLHIPIAGVIENMSGFLCPDNGKEYDIFGKGTAEDMAKAYKSEVLAQIPIEMIVREGGDEGKPVSFYHPESVSSKRYLMAAEKIWSFIEKINNEGGADNSAIQPVMNGKSACSHLEHHHHHH | soluble
5 | MAAHSSAGLLDYVFPTIVSEYYNQAPTKEGYRFASEEPNGSKREEMGVIMNPGTPDEQLVVMGMYSSYDEKTDTETVTMYTADKDGYKARYQIKNRKLSPGALKSAAGLEHHHHHH | not soluble
6 | MSLQASEQVPSIQIGEPGVTVEAGDHICAFYPTLAERDEILLPYLSEGMLAGEKCIAVLDTDDLDGIRQAVSGQGLPSPKDGNQLELRRSRNAYLANGSFETEAMLKFWEDHVGAAVAEGFPFARVAGEMTWALSNLPGVDQLVGYEAKLNRLLPRYPQVVLCLYELERFDGEVLVDVLKTHPKVLLGGMVLDNPYYLEPEEFLASREGHHHHHH | soluble
7 | HHHHHHGCMSGRKPIIGVMGPGKADTAENQLVMANELGKQIATHGWILLTGGRSLGVMHEAMKGAKEAGGTTIGVLPGPDTSEISDAVDIPIVTGLGSARDNINALSSNVLVAVGMGPGTAAEVALALKAKKPVVLLGTQPEAEKFFTSLDAGLVHVAADVAGAIAAVKQLLAKLN | soluble
8 | MSEQYVYQHGTLGGLMESLMAGTAEIGTLLTQGDFGIGTLEGSNGEIILLDGTLYHANQTGEITILEGEELTPYAAVTRFQEDGAFPVSTETDENIKAQILEKISPNFFAAIKISGLFAKMHVRVAPKQEKPYPPFVEAARNQPEFTAENIQGTVVGFFTPKLFHGASAAGFHLHFISEDHQFGGHILDFGIKQGTVSWMETAELRQHFPVHDADYRNKEIDIAKALSAIEEAE | not soluble
9 | MGSDKIHHHHHHAAEKTVVNISKVDGMPWFNRMGEGVVQAGKEFNLNASQVGPSSTDAPQQVKIIEDLIARKVDAITIVPNDANVLEPVFKKARDAGIVVLTNESPGQPSANWDVEIIDNEKFAAEYVEHMAKRMGGKGGYVIYVGSLTVPQHNLWADLLVKYQKEHYPDMHEVTRRMPVAESVDDSRRTTLDLMKTYPDLKAVVSFGSNGPIGAGRAVKEKRAKNKVAVYGMMIPSQAASLIKSGDITEGITYDPATAGYALAAVASTLLNGKTIEPGFELKELGKAEVDSDKHIIRFHKVLLVNKDNIDSLY | not soluble
